# Measured values: the supplement of paper PMC9112550, “Optimization of the antimicrobial peptide Bac7 by deep mutational scanning” (BMC Biology, 2022)
# Tested on: Escherichia coli TOP10
# Test: shrunken log2 fold change of peptide-encoding DNA abundance (4.5 h post-induction vs induction); higher = less antimicrobial activity (less host growth inhibition)
# Conditions: time post-induction: 4.5 h; library: site-saturation at positions 5, 18, 19, 20
# 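Also: peptides expressed intracellularly from a pBAD plasmid library in pooled LB shake-flask culture, induced with 0.3% L-arabinose, DNA abundance read by NGS, three biological replicates, DESeq2 with apeglm shrinkage.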
row,Sequence,shrunken log2 fold change
1,RRIRWRPPRLPRPRPRPMSEPRP,0.0832
2,RRIRSRPPRLPRPRPRPFSYPRP,-0.0241
3,RRIRNRPPRLPRPRPRPVQIPRP,0.00489
4,RRIRPRPPRLPRPRPRPAKAPRP,-0.0289
5,RRIRTRPPRLPRPRPRPWMGPRP,-0.116
6,RRIRIRPPRLPRPRPRPNFMPRP,0.713
7,RRIRSRPPRLPRPRPRPISNPRP,-0.338
8,RRIRFRPPRLPRPRPRPYNMPRP,-0.725
9,RRIRNRPPRLPRPRPRPCGMPRP,-0.45
10,RRIRFRPPRLPRPRPRPWRLPRP,-0.799
11,RRIRNRPPRLPRPRPRPIPWPRP,-0.102
12,RRIRFRPPRLPRPRPRPDQLPRP,0.22
13,RRIRARPPRLPRPRPRPRGMPRP,0.32
14,RRIRYRPPRLPRPRPRPRCWPRP,0.136
15,RRIRRRPPRLPRPRPRPLTTPRP,0.311
16,RRIRDRPPRLPRPRPRPVGDPRP,0.47
17,RRIRERPPRLPRPRPRPKQFPRP,-0.0933
18,RRIRKRPPRLPRPRPRPLFYPRP,-0.0645
19,RRIRWRPPRLPRPRPRPQPAPRP,0.812
20,RRIRQRPPRLPRPRPRPLKLPRP,-0.017
21,RRIRKRPPRLPRPRPRPKSPPRP,0.385
22,RRIRPRPPRLPRPRPRPFMCPRP,-0.164
23,RRIRYRPPRLPRPRPRPSSDPRP,-0.218
24,RRIRMRPPRLPRPRPRPSNNPRP,-0.0389
25,RRIRCRPPRLPRPRPRPCREPRP,-0.291

row,Sequence,shrunken log2 fold change
1,RRIRGRPPRLPRPRPRPRNPPRP,0.52
2,RRIRVRPPRLPRPRPRPHMAPRP,-0.339
3,RRIRVRPPRLPRPRPRPCHRPRP,-0.0177
4,RRIRQRPPRLPRPRPRPSSFPRP,-0.308
5,RRIRSRPPRLPRPRPRPWGPPRP,0.101
6,RRIRVRPPRLPRPRPRPWQGPRP,0.0284
7,RRIRIRPPRLPRPRPRPDTRPRP,-0.293
8,RRIRFRPPRLPRPRPRPPMQPRP,0.115
9,RRIRVRPPRLPRPRPRPNLYPRP,-0.563
10,RRIRIRPPRLPRPRPRPHGHPRP,-0.216
11,RRIRARPPRLPRPRPRPMCRPRP,0.0586
12,RRIRSRPPRLPRPRPRPQALPRP,0.0266
13,RRIRDRPPRLPRPRPRPRRGPRP,0.365
14,RRIRGRPPRLPRPRPRPDMKPRP,0.00543
15,RRIRPRPPRLPRPRPRPFAEPRP,0.0204
16,RRIRNRPPRLPRPRPRPHMFPRP,-0.0579
17,RRIRWRPPRLPRPRPRPNATPRP,0.736
18,RRIRERPPRLPRPRPRPCLWPRP,-0.0179
19,RRIRERPPRLPRPRPRPRRHPRP,0.411
20,RRIRHRPPRLPRPRPRPILKPRP,-0.348
21,RRIRMRPPRLPRPRPRPKLPPRP,1.13
22,RRIRDRPPRLPRPRPRPLPEPRP,0.0958
23,RRIRQRPPRLPRPRPRPSNIPRP,-0.286
24,RRIRVRPPRLPRPRPRPPPIPRP,0.59
25,RRIRCRPPRLPRPRPRPPYMPRP,-0.288

row,Sequence,shrunken log2 fold change
1,RRIRLRPPRLPRPRPRPYGMPRP,-0.0242
2,RRIRTRPPRLPRPRPRPSSKPRP,-0.201
3,RRIRERPPRLPRPRPRPVWVPRP,0.0145
4,RRIRNRPPRLPRPRPRPQLFPRP,0.177
5,RRIRLRPPRLPRPRPRPIGEPRP,-0.169
6,RRIRMRPPRLPRPRPRPCPFPRP,-0.241
7,RRIRIRPPRLPRPRPRPLKLPRP,-0.838
8,RRIRKRPPRLPRPRPRPGPDPRP,0.608
9,RRIRNRPPRLPRPRPRPHRYPRP,-0.345
10,RRIRLRPPRLPRPRPRPKIFPRP,-0.0395
11,RRIRARPPRLPRPRPRPQAVPRP,0.0772
12,RRIRVRPPRLPRPRPRPLWNPRP,-0.197
13,RRIRRRPPRLPRPRPRPFWLPRP,0.231
14,RRIRHRPPRLPRPRPRPKFTPRP,-0.219
15,RRIRMRPPRLPRPRPRPNLEPRP,0.284
16,RRIRMRPPRLPRPRPRPGGCPRP,0.888
17,RRIRDRPPRLPRPRPRPEFEPRP,0.824
18,RRIRDRPPRLPRPRPRPLPWPRP,0.572
19,RRIRVRPPRLPRPRPRPFSAPRP,-0.132
20,RRIRDRPPRLPRPRPRPEKIPRP,0.652
21,RRIRKRPPRLPRPRPRPITEPRP,-0.147
22,RRIRIRPPRLPRPRPRPGVFPRP,0.292
23,RRIRTRPPRLPRPRPRPKPLPRP,-0.0401
24,RRIRFRPPRLPRPRPRPVRMPRP,0.0345
25,RRIRWRPPRLPRPRPRPKYRPRP,0.00658

row,Sequence,shrunken log2 fold change
1,RRIRSRPPRLPRPRPRPTWWPRP,0.422
2,RRIRNRPPRLPRPRPRPGENPRP,0.185
3,RRIRKRPPRLPRPRPRPVMLPRP,0.109
4,RRIRDRPPRLPRPRPRPMYCPRP,-0.00227
5,RRIRFRPPRLPRPRPRPKMHPRP,0.0482
6,RRIRWRPPRLPRPRPRPRVTPRP,1.75
7,RRIRARPPRLPRPRPRPCCNPRP,0.278
8,RRIRARPPRLPRPRPRPRTVPRP,0.457
9,RRIRARPPRLPRPRPRPREWPRP,-0.0253
10,RRIRVRPPRLPRPRPRPLTSPRP,0.0775
11,RRIRARPPRLPRPRPRPIELPRP,0.00186
12,RRIRFRPPRLPRPRPRPTGFPRP,0.0467
13,RRIRDRPPRLPRPRPRPSEDPRP,0.00101
14,RRIRKRPPRLPRPRPRPLPHPRP,-0.0107
15,RRIRERPPRLPRPRPRPLPNPRP,-0.658
16,RRIRGRPPRLPRPRPRPFCWPRP,0.551
17,RRIRFRPPRLPRPRPRPKVWPRP,-0.249
18,RRIRPRPPRLPRPRPRPQQMPRP,-0.00373
19,RRIRIRPPRLPRPRPRPIHWPRP,-0.0782
20,RRIRIRPPRLPRPRPRPHCAPRP,-0.0649
21,RRIRMRPPRLPRPRPRPQIQPRP,-0.0708
22,RRIRYRPPRLPRPRPRPPFHPRP,-0.589
23,RRIRYRPPRLPRPRPRPMREPRP,0.529
24,RRIRARPPRLPRPRPRPYLCPRP,-0.291
25,RRIRSRPPRLPRPRPRPPALPRP,0.453

row,Sequence,shrunken log2 fold change
1,RRIRGRPPRLPRPRPRPLRSPRP,1.67
2,RRIRERPPRLPRPRPRPCSSPRP,0.00543
3,RRIRCRPPRLPRPRPRPQDEPRP,-0.0478
4,RRIRQRPPRLPRPRPRPINWPRP,-0.0302
5,RRIRFRPPRLPRPRPRPDEAPRP,0.0246
6,RRIRIRPPRLPRPRPRPVVHPRP,-0.000671
7,RRIRARPPRLPRPRPRPCSTPRP,-0.0691
8,RRIRFRPPRLPRPRPRPVSKPRP,-0.358
9,RRIRERPPRLPRPRPRPAFVPRP,0.121
10,RRIRLRPPRLPRPRPRPGPQPRP,0.228
11,RRIRNRPPRLPRPRPRPWFCPRP,-0.861
12,RRIRWRPPRLPRPRPRPHMAPRP,0.00551
13,RRIRWRPPRLPRPRPRPGFMPRP,0.212
14,RRIRVRPPRLPRPRPRPDDCPRP,-0.197
15,RRIRQRPPRLPRPRPRPYRKPRP,-0.0156
16,RRIRDRPPRLPRPRPRPWLWPRP,0.0548
17,RRIRYRPPRLPRPRPRPNKQPRP,-0.0515
18,RRIRWRPPRLPRPRPRPRFAPRP,0.695
19,RRIRQRPPRLPRPRPRPKVLPRP,0.0378
20,RRIRKRPPRLPRPRPRPLSVPRP,-0.00128
21,RRIRCRPPRLPRPRPRPQRNPRP,-0.0392
22,RRIRERPPRLPRPRPRPPTWPRP,0.113
23,RRIRRRPPRLPRPRPRPYQMPRP,-0.0261
24,RRIRARPPRLPRPRPRPIQYPRP,-0.463
25,RRIRQRPPRLPRPRPRPCWGPRP,0.0281
